Measurements as given in the nanobody polyreactivity screen of Harvey et al. (2022).

Assay: yeast display, Sf9 membrane polyspecificity reagent, FACS + sequencing; frameworks hold sequencing errors
Outline: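 Sorting gates, low and high (top ~1%), were placed on anti-HA fluorescence to track expression and on streptavidin fluorescence to track reagent binding. A clone's polyreactivity label is taken from the gate it came out of. The reagent was 10% biotinylated, detergent-solubilized Sf9 membrane, applied for 1 hour at 4 °C to galactose-induced yeast display cells.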

Sequence	polyreactivity (PSR sort gate)
QVQLVESGGGLVQAGGSLRLSCAASGFTFERYTMGWYRQAPGKERELVATISRRSGRTSYADSVKGRFTISRDNAKNSVYLQMNSLKPEDTAVYYCAVDDAYPDRYDYWGQGTQVTVSS	high polyreactivity
QVHLVESGGGLVQAGGSLRLSCAASGITFKWNDMGWYRQAPGKEREFVAAITGSTGSTFYADSVKGRFTISRDNAKNTVYLQMNSLKPEDTAVYFCAAGPWFYYWRQGTQVTVSS	low polyreactivity
QVQLVESGGGLVQAGGSLRLSCAASGSIFGDNAMGWYRQAPGKERELVAAISIVGSTSYADSVKGRFTISRDNAKNTVYLQMNSLKPEDTAVYYCAADTFYSYYDMDYWGQGTQVTVSS	low polyreactivity
QVQLVESGGGLVQAGGSLRLSCAASGRTFSRNAMGWYRQAPGKERELVAAITKGGGSTYYADSVKGRFTISRDNAKNTVYLQMNSLKPEDTAVYYCAAYKPSTRRYDYWGQGTQVTVSS	high polyreactivity
QVQLVESGGGLVQAGGSLRLSCAASGSTFGRYAMGWYRQAPGKERELVAAITTSGGRTRYADSVKGRFTISRDNAKNPVYLQMNSLKPEDTAVYYCAASGAQGPDYDYWGQGTQVTVSS	low polyreactivity
QVQLVESGGGLVQAGGSLRLSCAASGSTFETNAMGLYRQATRKERELVAAISYNGGSTYADSVKGRFTISRDNAKNTVYLHMNSLKPEDSAVYYCAAVRSPRGLGGYWGQGTQVTVAS	low polyreactivity
QVQLVESGGGLVQEGGILRLSCAASGRTFTWYAMEWYRQAPGKERELVAAISFSGGSTYYADSVKGRFTISRDNAKNTVYLQMNSLKPEDSAVYYCARASGDAWEGPRLDYWGQGTQVTVSS	low polyreactivity
QVQLLESGGGLVQAGGSLRLSFAASGLTLGAYAMVWYRQAPGKERELVAAITNGGSTDYADSVKGRFTISRDNAKITVYLQMNSLKPEDTAVYYCAKDISRPDRGMDYWGQGTQVTVSS	low polyreactivity
QVQHVESGGGLVQAGGSLRLSCAASGSIIDIYAMGWYRQAPGKERELVASISGGAGSTNYADSVKGRFTISRDNAKNSVYLQMNSLKPEDTGVDDFAAVVYVPVYFQHKFDVEYEYWGQGTQVTVSS	low polyreactivity
QVQLVESGGGLVQAGGSLRLSCAASGLIFYDNMGWYRQAPGKERELLAAISSSGGSTSYADSVKGRFTISRDNAKITVSLQMNCLKPEDTGVYYCAADSYPAYLGFVGFDYWGQGTQVTVSS	low polyreactivity
QVKLVESGGGLVQAGGSLRLSCAASGSTFYHNAIGWYRQAPGKERELVARITRGGSTDYADSVKGRFTISRDNAKNTVYLQMNSLKPEDTEVYYCAADIGHFERFYWGQGTQVTVSS	low polyreactivity
QVQLVESGGGLVQAGGSLRLSCAASGLIFWYNAMGWYRQAPGKEREFVAAITSDGGRTYYADSVKGRFTISRDNAKNTVYLQMNSLKPEDTAVYYCTARGYGYLGRKGGYSYGYYYWGQGTQVTVSS	low polyreactivity
QVQLVESGGGLVQAGGSLRLSCSASGSTFSRYAMGWYRQAPGKEREFVAAISQRGGSTYYADSVKGRFTISRDNAKNTVYLQMNSLKPEDTAVYYCAARRVPQLDDYWGQGTQVTVSS	high polyreactivity
QVQLVESGGGLVQAGGSLRLSCAASGFIFSWYAMGWYRQAPGKERELVAAIDQSGDSTYYADSVKGRFTISRDNAKNTVYLQMNSLKPEDTAVYYCAAQSYDYWYDYDYWGQGTQVTVSS	high polyreactivity
QVQLVESGGGLVQAGGSLRLSCAASGIIFARNAMGWYRQAPGKERELVAAISSRSGSTYYADSVKGRFTISRDNAKNTVYVQMNSLKPEDTAVYYCNAVYAGRFGSHYWGQGTQVTVSS	high polyreactivity
QVQLVESGGGLVQAGGSLRLSSAASGRTFYLNAMGWYRQAPGKERELVAAIRISGGSTYYADSVKGRFTISRDNAKNTVYLQMKSLKPEDTAVYYCIAGPYHALSPTVSEYGYWGQGSQVTVSS	low polyreactivity
QVQLVESGGGLVQAGGSLRLSCAASGSIFEYYTMGWYRQAPGKERELVATISRSADRTYYADSVKGRFTISRDNAKNTVYLQMNSLKPEDTAVDYCAKRYPRTTQWIYDYWGQGTQVTVSS	high polyreactivity
QVQLGESGGGLVQAGGSLRLSCAASGRTCWPYARGWYRQAPGKEMELVAAISRGDRTHYADSVKGRFTISRDNAKKTVYLQMNSLIPEVTAVFYCAADSRYYYYVYKISGDYDSWGQGTHVTVSS	low polyreactivity
QVQLVESGGGLVHSGGSLRLSCAASGSIFDYYAMGLYRQAPGKERELVAAISWRGGTTYYADSVKGRFTISRDNANNTVFLQMNRLKPEYTAVYYCNADKRFRRYDYWGQGNQVTVSS	high polyreactivity
QVQLVESVGGLVQAGGSLRLSCAASGSIFRVYAMGWYRQAPGKERELVATISGSAGRTYYADSVKGRFTISRDNAKNTVYLQMNSLKPEDTAVYYCAARWYKEYYWGQGTQVTVSS	high polyreactivity
QVQHVESGGGLVQAGGSLRLGCPASGIIFIAYAMGWYRQAPGKERELVADISIGGSTNYADSVKGRFTISRDNAKYTVYLQMNSLKPEDTAVYYCAKRPKNKPVLGDYDHWGQGTQVTVSS	low polyreactivity
QVQLVESGGGLVQAGGSLRLSCAASGFTFQRYAMGWYRQAPGKERELVAGITRRSGSTFYADSVKGRFTISRDNAKNNVYLLMNSLKPEDTAVYYCAATVPGLHWIYDFWGQGTQVTVSS	high polyreactivity

Sequence	polyreactivity (PSR sort gate)
QVQLVESGGGLVQAGGSLRLSCAASGSIFYDYAMGWYRQAPGKERELVAAISSSGSSTYYADSVKGRFTISRDNAKNTVYLQMNSLKPEDTAVYYCAAYSRRQWKYDYWGQGTQVTVSS	high polyreactivity
QVQLVESGGGLDQAGGSLRLSCAASGFIFGVSVMGWYRPAPGKERELVAAMSGRGGSTFYADSVKGRFTISRDNAKNTVYLQMNSLKPEDTAVYYCAAKSTGPSMDYWGQGTQVTVSS	high polyreactivity
QVQLVESGGGLVQAGGSHRLSCAASGSIFTAYALGWYRQATGKARELVAAIDVSGDSTYYADSVKGRFTISRDNAKKTVYLQMNSLKPEDTAVYYCKAEYRVNKEYDYWGQGTQVTVSS	low polyreactivity
QVQLVESGGGLVQAGGSLRLSCAASGRTFWYYTMGWYRQAPGKERELVASITSGSGTTYYADSVKGRFTISRDNAKNTVYLQMNSLKPEDTAVSSCAAKNTPSFFYYDRYDYWGQGTQVTVSS	low polyreactivity
QVQLVESGGGLVQAGGSLRLSCAASASTFPVNAMGWYRQAPGKERELVAAIRSSTGRTYYADSVKGRFTISRDNAKNTVYLQMNSLKPEDTAVYYCAAYYLGQYEYDYWGQGTQVTVSS	low polyreactivity
QVQLVESGGGLVQAGGSLRLSCAASGIIFESYAMGWYRQAPGKERELVAAISWDGGSTYYADSVKGRFTISRDNAKNTVYLQMNSLKPEDTAVYYCAAESYGIYDGYDYWGQGTQVTVSS	high polyreactivity
QVQLQESGGGLVQAGGSQRLSCAASGYIIYFQYMGWYRQAPRKEREFVAAISDGANTNYADSVKGRFTISRDNAKNTVYLQMNSLKPEDTAVYYCAVYADENYYYIYWGQGTQVTVSS	low polyreactivity
QVQLVESGGGLVQAGGRLRLTCAASARTIVLNPMGWYRQAPGKERELVAAISSGGSTNYADSVKGRFTISRDNAKNTVYLQMNSLNPEDTAVYYCAGQDVNLYSAYYYWGQGTQVTVSS	low polyreactivity
QVQLVESGGGLVQAGGSLRLSCGASGRIFAYYAMGWYRQAPGKERELVADISSGGNTYYADSVKGRFTISRDNAKNTVYLQMNSLKPEDTAVYYCAADIAWYTHDHRIFDYWGQGTQVTVSS	low polyreactivity
QVQLVESGGGLVQAGGSLRLSCAASGNTFIDYAMGWYRQAPGKETELVAAITRGGRTNYADSVKGRFTISRDNAKNTVYLQMNSLKPEDTAVYYCAAALRRRRADFDYWGQGTQVTVSS	high polyreactivity
QVQLVESGGGLVQAGGSLRLSCAASGRIFSRYAMGWYRQAHGKERELVAAISWSGGSTYYADSVKGRFTISRDNAKNTVYLQMNSLKPEDTAVYYCAARRSYSYGSWGQGTQVTVSS	high polyreactivity
QVQLVESGGGLVQAGGSLRLSCAASGFIFRYYAMGWYRQAPGKERELVAAISGSGGGTYYADSVKGRFTISRDNAKNTVYLQMNSLIPEDTAVYYCAATWTQPQPGYYPYYYWGQGTQVTVSS	high polyreactivity
QGQLVESGGGLVQAGGSLRLSCDASGSTFFENTMGWYRQAHGQERELVAAITSGGGRPYYADSVKGRFTISRDNAKNTVYLQLNSLKPEETAVYYCAARARYTRRGRHYDYWGQGTQVTVSS	high polyreactivity
QVQLVESGGGLVQAGGSLRLSCAASGFIFYYYAMGWYRQAPGKERELVAAITQGGGSTYYADSVKGRFTISRDNAKNTVYLQMNSLKPEDTAVYYCAAVKRVYAHSRAFSSDFYYWGQGTQVTVSS	high polyreactivity
QVQLVESGGGLVQAGGSLRLSCAASGGIFARYVKGWYRQAPGKERELVAAISLSGGSTYYADSVKGRFTISRDNAKKTVYLQMNSLNPEDTAVYYCAAIRKKRLTYDYWGQGTEVTVSS	high polyreactivity
QVQLVESGGGLVQAGGSLRLSCAASGRIFVPNAMGWYSQAPGKERELVAAINWGGGSTYYADSVKGRFTISRDNAKNTVYLQMNSLKPEDTAVYYCAADHPYTIGVLPNQQFDYWGQGTQVTVSS	low polyreactivity
QVQLVESGGGLVQAGGSLRLSCAATRYTFSHYAMGCYRQAPGKERELVAAMSGSGGNTYYADSVKGRFTISRDHAKNTVYLQMNSLKPEDTAVYYCNADNEYRLGYWDDSWVQGTQVTVSS	low polyreactivity
QVQLVESGGGLVQAGGSLRLSCAATGITLYGYFMGWYRQAPGKERELVAAISRSGGSTYYADSVMGRFTISRDNAKNTVYLQMNSLKPEDTAVYYCAKVPRYYYDSEFDYWGQGTQVTVSS	high polyreactivity
QVQLVESGGGLVQAGGSLRLSCAASGSIFYGNTMGWYRQAPGKERELVAAITWSGDSTYYADSVKGRFTISRDNAKNTVYLQMNSLKPEDTAVYYCNADQTGVYYAGEGNYWGQGTQVTVSS	low polyreactivity
QVQLVESGGGLVQAGGSLRLSCAASGFTFYAYAMGWYRQAPGKERELVAAISTSGTDTYYADSVKGRFTISRDNAKNTVYLQMNSLKPEDTAVYYCAAELYLYGFYEPIYPYSYDYWGHGTQVTVSS	low polyreactivity
QVKLVESGGGLVQAGGSLRISCAASGLTFPKYAMGWYRQAPGKERELVAAITQRGGSTYYADSVKVRFTISRDNAKNTVYLEMYWLKREDTAVYYCNARRRDYNNRREFDYWGQGSQVTVSS	high polyreactivity
